# From patent EP4491230A1 (iOmx Therapeutics AG, dated 2025)
# B1: A-046 (antibody, V domains shown)
# VH: QVQLVQSGAEVKKPGSSVKVSCKASGGSFQSYAINWVRQAPGQGLEWMGGIIPGFSTANYAQKFQGRVTITADESTSTAYMELSSLRSEDTAVYYCAKDLGTYSSGWPYYYGMDVWGQGTTVTVSS
# VL: SYELTQPPSVSVSPGQTASITCSGDKLGDKYASWYQQKPGQSPVLVIYQDSKRPSGIPERFSGSNSGNTATLTISGTQAEDEADYYCQLTHLTIYVFGGGTKLTVL
# notes: HC of A-015 and LC of A-036; Tested as IgG
# Target: recombinant LILRA1 ECD (human, UniProt O75019 17-461)
# Assay: BLI, IgG on AHC sensor, ECD as analyte
# Chain of recombinant LILRA1 ECD (O75019 17-461 limits assumed): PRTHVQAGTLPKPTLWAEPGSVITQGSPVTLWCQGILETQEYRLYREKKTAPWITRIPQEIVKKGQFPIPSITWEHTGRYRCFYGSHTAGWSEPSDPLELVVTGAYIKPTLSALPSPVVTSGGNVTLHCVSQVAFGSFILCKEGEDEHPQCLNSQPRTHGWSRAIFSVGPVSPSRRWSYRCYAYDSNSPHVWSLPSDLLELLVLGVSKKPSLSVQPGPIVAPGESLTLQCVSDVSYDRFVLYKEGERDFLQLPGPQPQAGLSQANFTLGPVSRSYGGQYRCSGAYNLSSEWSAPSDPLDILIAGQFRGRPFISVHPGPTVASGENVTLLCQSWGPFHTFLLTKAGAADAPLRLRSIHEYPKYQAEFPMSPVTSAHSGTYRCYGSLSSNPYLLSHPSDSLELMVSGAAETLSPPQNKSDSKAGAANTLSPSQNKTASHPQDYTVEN
binder,measurement,value
B1,binding result,no binding (tested: 900 nM of LILRA1 ECD)
